In the nanobody polyreactivity screen of Harvey et al. (2022):

Assay: yeast display, Sf9 membrane polyspecificity reagent, FACS + sequencing; frameworks hold sequencing errors
How it was run: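 Nanobodies came from a synthetic yeast display library in Saccharomyces cerevisiae BJ5465, induced with galactose for 36–48 hours and stained for 1 hour at 4 °C with 10% biotinylated, detergent-solubilized Sf9 membrane reagent. Cells were enriched on streptavidin microbeads and then FACS-sorted, with low and high (top ~1%) gates set on anti-HA fluorescence for expression and streptavidin fluorescence for reagent binding. Each polyreactivity label reflects the gate a clone came from. Genes were amplified by colony PCR, sequenced by MiSeq 2 × 250 and filtered by CDR length.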

| Sequence | polyreactivity (PSR sort gate) |
| --- | --- |
| QVQLVESWGGLVQAGGSHRLSCAASGRTFGIYAMGWYRQAPGKERELVATISWRGGSTYYADSVKGRFTISRDNAKNTVYLQMNSLKPEDTAVYYCAAGYYPYWGQGTQVTVSS | low polyreactivity |
| QVQLVESWGGLVQAGGSLRLRCAASGSTSLGYAMGWYRQAPGKERELVASISWTGGGKYYADSVKGRFTISRDNAKNTVYLQMNSLKPEDTAVYYCAADLTGYHPYIYGYWGQVTQVTVSS | low polyreactivity |
| QVQLVESWGGLVQAGGSLRLSCAASGFIFRYYAMGWYRQAPGKERELVAAISWSGGSTYYADSVKGRFTISRDNAKYTVYLQMNSLKPVDTAVYYCAADKRGSVYLSSFWMDYWGQGSQVTVSS | low polyreactivity |
| QVQLVESWGGLVQAGGSLRLSCAASGFIMQWYAMGWDRQAPGKERELVAGISSGTSTYYADSVKGRFTISRDNAKNTVYFQMNSLKAEDTAVYYCTWFVFDPEDYWGQGTQVTVSS | low polyreactivity |
| QVQLVESWGGLVQAGGSLRLSCAASGFTFTGYAMGWYRQAPGKERELVAAISQSGGSTYADSVKGRFTISRDNAKNTVYLQMNSLKPEDTAVYYCAAVWFLLTEYDYWGQGTQVTVSS | low polyreactivity |
| QVQLVESWGGLVQAGGSLRLSCAASGIIFAAYAMGWYRQAPGKERELVATITSSGGSTFYADSVKGRFTISRDNAKNTVYLQMNSLKPEDTAVYYCAADTWGLWFWGPLFSKYGYWGQGTQVTVSS | low polyreactivity |
| QVQLVESWGGLVQAGGSLRLSCAASGIIFRYYAIGWYRKAPGKERELVAAISRSGARTYYADSVKGRFTISRDNAKNTVYLQMNSLKPEDTAVYYCATEPTSGRFYYWGQGTQVTVSS | high polyreactivity |
| QVQLVESWGGLVQAGGSLRLSCAASGRIFDRYAMGWYRQAPGKERELVASISSGGSTYYADSVKGRFTISRDNAKNTVYLQMNSLKPEDTAVYYCNAEARSRRYRYEYWGQGTQVTVSS | high polyreactivity |
| QVQLVESWGGLVQAGGSLRLSCAASGRIFSYYAMGWYRQAPGKERELVAAISRTGGTTYYADSVKGRFTISRDNAKNTVYLQMNSLKPEDTAVYYCNAVKAPYLRYDYWGQGTQVTVSS | high polyreactivity |
| QVQLVESWGGLVQAGGSLRLSCAASGRIFYGYAMAWYRQAPGKEREFVAAITVSAGSTYYADSVKGRFTISRDNAKNTVYLQMNSLKPEDTEVYYCAAKRYVYTSYRFVYWGQGTQVTVSS | low polyreactivity |
| QVQLVESWGGLVQAGGSLRLSCAASGSIFDVNAMGWYRQAPGKERELVAAISDSGGSTYYADSVKGRFTISRDNAKNTVYLQMNSLKPEDTAVYYCNADWSWYNYYDFDYWGQGTQVTVSS | low polyreactivity |
| QVQLVESWGGLVQAGGSLRLSCAASGSIFRGYAMGWYRQAPGKGRELVAAISWSGASTYYADSVKGRFTISRDNAKNTVYLKMNSLKPEDTAVYYCAAVQWTGYPFDYWGQGTQVTVSS | high polyreactivity |
| QVQLVESWGGLVQAGGSLRLSCAASGSTFASYVMGWSRQAPGKERELVAAISRSGGSTYYADSVKGRFTISRDNAKYTVYLQMNSLKPEDTAVYYCNAPYLIYKKGRYDYWGQGTQVTVSS | high polyreactivity |
| QVQLVESWGGLVQAGGSLRLSCAASGSTFVINAMGWYSQAPGKERELVAAITWGGGRTYYADSVKGRFTISRDNAKNTVYLQMNSLKPEDTAVYYCAAVGSGWKGDYWGQGTQVTVSS | low polyreactivity |
| QVQLVESWGGLVQAGGSLRLSCAASGSTFVVIAMGWYRLAPGKERELVAAISTSGGTTYYADSVKGRFTISRDNAKNTVYLQMNSLKPEDTAVYYCAAGGKKRDDYWGQGTQVTVSS | high polyreactivity |
| QVQLVESWGGLVQAGGSLRLSCAASGSTLYQYDMGWYRHAPGKEREYLAAITTYGDSTYYADSVKGRFTISRDNAKNTVYLQMNSLKPEDTAVYYCNADVFKTVFYIDRYYYWGQGTQVTVSS | low polyreactivity |
| QVQLVESWGGLVQAGGTLRLSCAPSGYIFYFNDMGCYIQAPGKERELVAAITWSGTGTYYADSVKGRFTISRDNAKNTVYLQMNSLKPEDTAVYYCAAREWTSQDRQHNYWGQGTQVTVSS | low polyreactivity |
| QVQLVETAGGLVQAGGSLRLSCAASGSTFYTNAMGWYRQAPGKERELVAAISGSGGSTYYADSVKGRFTISRDNAKNTVYLQMISLKPEDTAVYNCAARSRYYDTRFDYWGQGTQVTVSS | low polyreactivity |
| QVQLVETAGGLVQAGGSLRLSCAASGSTIRYNVMGWYRQAPGKERELVAAITINGGSTNYADSVKGRFTISRDNAKNTVYLQMNSLKPEDTAVYYCAAAKSYRSGSWYEYWGQGTQVTVSS | high polyreactivity |
| QVQLVETCGGIVQAGGSLRLSCAASGITFALYAMGWYRESPGKERELVAAISYSGGRSYYADSVKGRFTISRDHAQNTVNLQMNSLKPEDTAVYYCAAGGSGSGPYGYGYWGQGTKVTVSS | high polyreactivity |
| QVQLVETGAGLVQAGGSLRLSCAASGILLFNAMGWNTQPPGKERELVAAINSGGSTNYADSVKGRFTISRDNAKNTVYFQMNSLIPEDTAVYFCAKDTPFTLRVWAEGGMDYWGHGTQVTVSS | low polyreactivity |
| QVQLVETGGGLDQAGGSLRLSCAASGRIFRKYVMGWYRQAPGKERELVAVISSGASTNYADSVKGRFTISRDNAKNTVYLQMNSLKPEDTAVYYCAKYGKYTWRQGGYWGQGTQVTVSS | high polyreactivity |

| Sequence | polyreactivity (PSR sort gate) |
| --- | --- |
| QVQLVETGGGLFQAGGSLRLSCAASGSTFVYYAMGWYRQPPGKERELVAAISSGGNTKYADSVKGRFTISRDNAKNTFYLQMNSLKPEDTAVYYCARETQSYYDHDYWGQGTQVTLSS | low polyreactivity |
| QVQLVETGGGLVHAGGSLRLSCAASGRIFHINAMGWYRQAPGKERELVAAISSGGRTNYADSVKGRFTISRDNAKNTVYLQMNSLKPEDTAVYYCARQYTYGPNRWYGYWGQGTQVTVSS | high polyreactivity |
| QVQLVETGGGLVQAAGSLRLSSAASGSTFLANTMGWYRQEPGKEREFVAAITRRGGSTYYADSVKGRFTISRDNAKNTVYLQMNSLKPEDTAVYYCNADWYFQYPYDYWGQGTQVTVSS | low polyreactivity |
| QVQLVETGGGLVQAGGSFRLSCAASGGPFDTYVMGWYRQAPGKETELVAVITRGASTYYADSVKGRFTISRDNAKNTVYLQMNSLKPEETAVYYCAASFYSPDYYRFLYSFDYWGQGTQVTVSS | low polyreactivity |
| QVQLVETGGGLVQAGGSHRLSCAASGSIFGKNVIGRYRQAPGKERELVAAITSGASTYYADSVKGRFTISRDNAKNTVYLQINSLKPEDTAVYYCAARRWRKYYSGYNYWGQGTQVSVSS | high polyreactivity |
| QVQLVETGGGLVQAGGSHSLSCAASVRTVSSYARGWCRQAPGTERELVARITWSGGTYYADSVKGRFTISRDNAKNTVYLQMNRLKPEDTSVYYCAKRSYYWEYYYWGQGTQVTVSS | high polyreactivity |
| QVQLVETGGGLVQAGGSLGLSFAASGFIFSYYLMGWYRQAPGKERELVAAITTSGDSTYYADSVKGRFTISSDNAKNTVYLQINRLKPEDSAVYYCAADNYYETIWHYGYWGQGTQVTVSS | high polyreactivity |
| QVQLVETGGGLVQAGGSLRISCAASGSTFVDYDMGWYRQAPGKERELVAGITTGGSTNYADSVKGRFTISRDNAKNTVYLQMNSLKPEDTAVYYCNADSYPNLVPDYLYYWYEYWGQGTQVTVSS | low polyreactivity |
| QVQLVETGGGLVQAGGSLRLICAASGSTFQPYAMGWYRQAPGKEREFVATISGSAGSTYYADSVKGRFKISRDNAKNTVYLQMNSLKPEDTAVYYCNADSGWFGYDYWGQGTQVTVSS | low polyreactivity |
| QVQLVETGGGLVQAGGSLRLICAASGSTFQYYAMGWSRQAPGKERELVAAITHSGTRTYYADSVKGRFTISRDNAKNTVYLQMYRLKPEDTSVYYCAALYTWYRYYRLDYWGQGTQVTVSS | high polyreactivity |
| QVQLVETGGGLVQAGGSLRLSCAASAFTFASYAMGWYRQAPGKEREFVAAITRSGGSTYYADSVKGRFTISRDNAKNTVYLQMNSLKPEDTAVYYGAAQYHGGISQRLYYWGQGTQVTVSS | high polyreactivity |
| QVQLVETGGGLVQAGGSLRLSCAASGFIFPIYAMGWYRQATGKERELVAVISGSGGSTYYADSVKGRFTISRDNAKNTVYLQMNSLKPEDTAVYYCAARGRNVAGYKGGYWGQGTQVTVSS | low polyreactivity |
| QVQLVETGGGLVQAGGSLRLSCAASGFIFRYYAMGWYRPAPGKERELVAVISSNGARTSYADSVKGRFTISRDNAKNTVYLQMNSLKPEDTADYYCNARAWSRFPPVGHDYWGQGTQVTVSS | high polyreactivity |
| QVQLVETGGGLVQAGGSLRLSCAASGFIFVDYAMGWYRPAPGKERELVAAITSNDDRTYYADSVKGRFTISRDNAKNTVYLQMNSLKPEDTAVYYCAAGGWGATADATFTYLYDYWGQGTQVTVSS | low polyreactivity |
| QVQLVETGGGLVQAGGSLRLSCAASGFTFAKYAMGRYRQAPGKERELVAAISSIGGSTYYADSVKGRFTISRDNAKNSVYLQMNSLKPEDSAVYFCAAELYCGYYYWGQGTQVTVYS | high polyreactivity |
| QVQLVETGGGLVQAGGSLRLSCAASGFTFAPYVMGWSRQAPGKERELVAAINWSGTRTYYADSVKGRFTFSRDNAKNTVYLQMNSLKPEDTAVYYCAARSVTVSGSLQPKRRYGYWGQGTQVTVSS | high polyreactivity |
| QVQLVETGGGLVQAGGSLRLSCAASGFTFFYYDMGWYRQAPGKERELVADITTGGSTNYADSVKGRFTISRDNAKNTVYFQMNSLKTEDTAVYYCAAATTYPYGYYYWGQGTEVTVSS | high polyreactivity |
| QVQLVETGGGLVQAGGSLRLSCAASGFTFIDYTMGWYRQAPGKERELVARITDTGSTNYEDSVKGRFTISRDT | low polyreactivity |
| QVQLVETGGGLVQAGGSLRLSCAASGFTFSFYTMGWYRQAPGKERELVAAISRRGGSTYYADSVKGRFTISRDNAKNTVYLQMNSLKPEDTAVYYCPTDHIPSVGDDYWGQGTQVTVSS | high polyreactivity |
| QVQLVETGGGLVQAGGSLRLSCAASGIIFGGYDRGWYRQAPGKERELVAAISWSGGSTYYAASVKGRFTISRDNAKNTVYLEMNSLKPEDTAVYYCAAAYYAPTRDYYYWGQGTQVTVSS | low polyreactivity |
| QVQLVETGGGLVQAGGSLRLSCAASGITFFAYAMGWYRQAPGKERELVAAISTGGSTNYADSVKGRFTISRDNAKNTVYLQMNSLKPEDTAVYYCGSDRSDLAEEGYAGYDYWGQVTQVTVSS | low polyreactivity |
